{"source": "patent US20090012268A1", "about": "(B R A H M S, published 2009)", "key": {"[1]": {"biological_target": "human TSH receptor expressed on cells (human, UniProt P16473 21-764)", "test": "cell-based or functional assay"}, "mouse TSHr": {"biological_target": "mouse TSHr (mouse, UniProt P47750 22-764)", "sequence (P47750 22-764)": "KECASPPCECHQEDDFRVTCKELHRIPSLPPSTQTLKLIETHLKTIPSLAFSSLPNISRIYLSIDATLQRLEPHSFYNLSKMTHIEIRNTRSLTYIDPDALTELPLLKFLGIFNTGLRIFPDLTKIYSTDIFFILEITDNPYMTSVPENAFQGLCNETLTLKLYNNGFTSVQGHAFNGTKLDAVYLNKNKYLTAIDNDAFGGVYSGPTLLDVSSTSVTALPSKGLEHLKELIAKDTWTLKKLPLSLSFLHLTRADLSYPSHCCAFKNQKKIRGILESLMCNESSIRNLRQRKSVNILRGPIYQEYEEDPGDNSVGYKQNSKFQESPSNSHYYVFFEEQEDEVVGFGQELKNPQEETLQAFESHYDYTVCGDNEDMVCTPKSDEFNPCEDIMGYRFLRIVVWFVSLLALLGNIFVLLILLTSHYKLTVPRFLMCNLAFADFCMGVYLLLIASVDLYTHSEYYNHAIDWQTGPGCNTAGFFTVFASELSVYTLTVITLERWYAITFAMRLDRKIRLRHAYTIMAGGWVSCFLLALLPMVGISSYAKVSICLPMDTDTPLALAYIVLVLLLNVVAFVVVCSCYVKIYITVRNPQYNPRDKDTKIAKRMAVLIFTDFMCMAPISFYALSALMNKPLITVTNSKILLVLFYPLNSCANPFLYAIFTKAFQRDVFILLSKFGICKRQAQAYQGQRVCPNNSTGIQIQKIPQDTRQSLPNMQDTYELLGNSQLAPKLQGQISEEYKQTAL", "test": "cell-based or functional assay"}, "[2]": {"biological_target": "T1, recombinant human TSHr preparation immobilized on coated tubes (human, UniProt P16473 21-764, limits assumed)", "T1 construct": "also called hTSHr coated tubes; TSHr coated tubes", "test": "displacement of 50% of 125I-labeled TSH from TSHr coated tubes", "method": "Selected mAbs and Fabs (generated after papain digestion) were purified by Sepharose-protein A affinity chromatography (ImmunoPure™ Fab preparation Kit, Pierce, Perbio Science, Belgium) and tested for their ability to stimulate cAMP production using JP26 CHO cells in normal isotonic medium (see above). For TBII activity determination, different amounts of antibodies were added in 250 μl of buffer A (20 mM Hepes-NaOH, pH 7.5, 50 mM NaCl, 1% BSA, 10% glycerol, 2 mg/ml mouse IgG) to hTSHr coated tubes. […] The tubes were incubated for 2 h at room temperature, washed four times with 2 ml washing buffer (8 mM Tris-Hl, 60 mM NaCl, 0.02% Tween-20, pH 7.5), and bound radioactivity was counted."}, "[3]": {"biological_target": "T1, recombinant human TSHr preparation …", "test": "saturation with acridinium ester labelled antibody on hTSHr coated tubes; Kd1 of a biphasic curve", "method": "(§1) 5 ng (−200 000 RLU) of acridinium ester labelled monoclonal antibody (20) and different amounts of unlabeled antibodies were added in 0.3 ml of buffer A to TSHr coated tubes. Tubes were incubated for 24 h at room temperature, washed four times with 2 ml washing buffer, and RLU were measured in a luminometer.\n(§2) The purified antibodies were subsequently labelled with acridinium ester and used in saturation experiments on hTSHr coated tubes."}, "[4]": {"biological_target": "T1, recombinant human TSHr preparation …", "test": "saturation with acridinium ester labelled antibody on hTSHr coated tubes; Kd2 of a biphasic curve", "method": "as §1, §2"}}, "note": "Where “and” joins values, the source holds several entries; their conditions need not be identical. Equal entries are not always repeated.", "data": [{"binder": "IRI-SAb2 (antibody, IgG2a, V domains shown, Mouse monoclonal IgG2a from a hybridoma; also called mAb IRI-SAb2; DSM ACC2664) VH: SCKASGYSFTAYTMNWVKQSHGKNLEWIGLINPFNGGTNYNQKFEGKATLTVDKSSTTAYMELLSLTSEDSAVYYCARRVWDYFDYWGQGTSLTVSS VL: EGSITCKASQNVGTNVAWYQQKGGQSLELLIYGASNRHTGVPDRFTGRGSGTDFTLTITNVQSEDMTNYFCEQYSRYPLTFGAG", "values": [{"measurement": "EC50 of cAMP production in JP26 cells, normal salt medium (IgG)", "setting": "[1]", "result": 2.75, "unit": "nM"}, {"measurement": "EC50 of cAMP production in MT3 cells, normal-salt medium", "setting": "mouse TSHr", "result": 1.3, "unit": "nM"}, {"measurement": "IC50", "setting": "[2]", "result": "0.3 µg/mL and 2 nM"}, {"measurement": "Kd", "setting": "[3]", "result": 0.07, "unit": "nM"}, {"measurement": "Kd", "setting": "[4]", "result": 1.23, "unit": "nM"}]}, {"binder": "IRI-SAb3 Fab fragment (Fab, V domains shown) VH: SCKASGYSFTAYTMNWVKQSHGYNLEWIGLINPYNGGANYNQKFKGKATLTVDKSSSTAYMELLSLTSEDSAVYYCARRVWDYFDYWGQGTTLTVSS VL: EGSITCKASQNVGTNVAWYQQKVGQSLELLIYGASSRHTGVPDRFTGSGSGTDFTLTITDVQSEDMTNYFCEQYSSYPLTFGAG", "values": [{"measurement": "EC50 of cAMP production in JP26 cells (Fab)", "setting": "[1]", "result": 74, "unit": "nM"}]}, {"binder": "IRI-SAb2 Fab fragment (Fab, V domains shown) VH: SCKASGYSFTAYTMNWVKQSHGKNLEWIGLINPFNGGTNYNQKFEGKATLTVDKSSTTAYMELLSLTSEDSAVYYCARRVWDYFDYWGQGTSLTVSS VL: EGSITCKASQNVGTNVAWYQQKGGQSLELLIYGASNRHTGVPDRFTGRGSGTDFTLTITNVQSEDMTNYFCEQYSRYPLTFGAG", "values": [{"measurement": "EC50 of cAMP production in JP26 cells (Fab)", "setting": "[1]", "result": 1.2, "unit": "nM"}]}, {"binder": "IRI-SAb3 (antibody, IgG1, V domains shown) VH: SCKASGYSFTAYTMNWVKQSHGYNLEWIGLINPYNGGANYNQKFKGKATLTVDKSSSTAYMELLSLTSEDSAVYYCARRVWDYFDYWGQGTTLTVSS VL: EGSITCKASQNVGTNVAWYQQKVGQSLELLIYGASSRHTGVPDRFTGSGSGTDFTLTITDVQSEDMTNYFCEQYSSYPLTFGAG", "values": [{"measurement": "EC50 of cAMP production in MT3 cells, normal-salt medium", "setting": "mouse TSHr", "result": 3.8, "unit": "nM"}]}]}
